The values that follow are results of earlier work, collected in patent US20180134803A1, “TREATMENT OF HER2-POSITIVE BREAST CANCER” (Genentech, Inc., priority 2016, published 2018).

Series [1] concerns incurable, locally advanced, recurrent or metastatic solid tumors.
For series [2] the following is noted: in vivo.

Regarding “Pertuzumab: antibody comprising the variable light and variable heavy amino acid sequences in SEQ ID NOs: 7 and 8; HER dimerization inhibitor”, in series [1] (Phase I, IV every 3 weeks), the confirmed partial responses entry is listed as “Two” and the “tumor regression, patients evaluable for response” value was 3 of 20. For the same substance, the tolerability entry in series [1] (in vivo, iv) is given as “generally well tolerated”. Also, in series [2], the mean clearance was 2.69 to 3.74 mL/day/kg and the “mean terminal elimination half-life” value was 15.3 to 27.6 days.
